Assay results from patent US8257949B2, “Self-priming polysialyltransferase” (National Research Council of Canada, priority 2006, dated 2012).

Experiment: Comparison of PST-16 and PST-17 sialic acid polymerization, CE analysis
Format: biochemical
Source text: The dotted line represents PST-16; the solid line represents PST-17. Arrows indicate the positions of Lactose (lac), GD3, GQ4, and polysialylated products conjugated to more than four sialic acid residues. The amount of polysialic acid relative to all other sialylated species ([…] sialic acid moieties) is about 50% in for each reaction.
Sialylation of the starting material: (▪), +1 NeuAc; ( ? ), +2 NeuAc; (□), +3 NeuAc; ( ? ), 4 NeuAc; ( ? ), >4 NeuAc (▪). 6A is PST-16 with Lac-FCHASE substrate. 6B is PST-17 with Lac-FCHASE substrate. 6C is PST-16 with T-Ag-FCHASE substrate. 6D is PST-17 with T-Ag-FCHASE substrate.
A fusion of Cst-II from C. jejuni OH4384 and the E. coli PST protein (PST-16) was generated and compared to the and N. meningitidis fusion (PST-17). Enzymatic activities of the two fusion proteins were determined and compared. […] See, e.g., FIGS. 5 and 6.

B1: PST-16: fusion of Cst-II from C. jejuni OH4384 and the E. coli PST protein, SEQ ID NO: 15 (protein)
chain: MKKVIIAGNGPSLKEIDYSRLPNDFDVFRCNQFYFEDKYYLGKKCKAVFYNPSLFFEQYYTLKHLIQNQEYETELIMCSNYNQAHLENENFVKTFYDYFPDAHLGYDFFKQLKDFNAYFKFHEIYFNQRITSGVYMCAVAIALGYKEIYLSGIDFYQNGSSYAFDTKQKNLLKLAPNFKNDNSHYIGHSKNTDIKALEFLEKTYKIKLYCLCPNSLLANFIELAPNLNSNFIIQEKNNYTKDILIPSSEAYGKFSKNINFGGGHMIFDASLKKLRKLFVNPIGFFRDSWFFNSKNKAEELLSPLKIKSKNIFIISNLGQLKKAESFVQKFSKRSNYLIVLATEKNTEMPKIIVEQINNKLFSSYKVLFIPTFPNVFSLKKVIWFYNVYNYLVLNSKAKDAYFMSYAQHYAIFVYLFKKNNIRCSLIEEGTGTYKTEKENPVVNINFYSEIINSIILFHYPDLKFENVYGTYPILLKKKFNAQKFVEFKGAPSVKSSTRIDNVIHKYSITRDDIIYANQKYLIEHTLFADSLISILLRIDKPDNARIFIKPHPKEPKKNINAIQKAIKKAKCRDIILITEPDFLIEPVIKKAKIKHLIGLTSSSLVYAPLVSKRCQSYSIAPLMIKLCDNDKSQKGINTLRLHFDILKNFDNVKILSDDITSPSLHDKRIFLGE
  consumption of the acceptor: consumed completely
CE analysis
  formation of long sialic acid polymers: did not detect formation of long sialic acid polymers
Lac-FCHASE acceptor, FIG. 5
  amount of polysialic acid relative to all other sialylated species: about 50%
